The target of this assay is human HER4 expressed on HEK293 cells (human) (UniProt Q15303). Nature of the assay: flow cytometry, HEK293 HER4 overexpressing cells, PE-A B2-A channel. (In general: Flow cytometry measures light scatter and fluorescence of single cells or particles in a stream.)
Chain of human HER4 expressed on HEK293 cells (human) (Q15303 26-1308): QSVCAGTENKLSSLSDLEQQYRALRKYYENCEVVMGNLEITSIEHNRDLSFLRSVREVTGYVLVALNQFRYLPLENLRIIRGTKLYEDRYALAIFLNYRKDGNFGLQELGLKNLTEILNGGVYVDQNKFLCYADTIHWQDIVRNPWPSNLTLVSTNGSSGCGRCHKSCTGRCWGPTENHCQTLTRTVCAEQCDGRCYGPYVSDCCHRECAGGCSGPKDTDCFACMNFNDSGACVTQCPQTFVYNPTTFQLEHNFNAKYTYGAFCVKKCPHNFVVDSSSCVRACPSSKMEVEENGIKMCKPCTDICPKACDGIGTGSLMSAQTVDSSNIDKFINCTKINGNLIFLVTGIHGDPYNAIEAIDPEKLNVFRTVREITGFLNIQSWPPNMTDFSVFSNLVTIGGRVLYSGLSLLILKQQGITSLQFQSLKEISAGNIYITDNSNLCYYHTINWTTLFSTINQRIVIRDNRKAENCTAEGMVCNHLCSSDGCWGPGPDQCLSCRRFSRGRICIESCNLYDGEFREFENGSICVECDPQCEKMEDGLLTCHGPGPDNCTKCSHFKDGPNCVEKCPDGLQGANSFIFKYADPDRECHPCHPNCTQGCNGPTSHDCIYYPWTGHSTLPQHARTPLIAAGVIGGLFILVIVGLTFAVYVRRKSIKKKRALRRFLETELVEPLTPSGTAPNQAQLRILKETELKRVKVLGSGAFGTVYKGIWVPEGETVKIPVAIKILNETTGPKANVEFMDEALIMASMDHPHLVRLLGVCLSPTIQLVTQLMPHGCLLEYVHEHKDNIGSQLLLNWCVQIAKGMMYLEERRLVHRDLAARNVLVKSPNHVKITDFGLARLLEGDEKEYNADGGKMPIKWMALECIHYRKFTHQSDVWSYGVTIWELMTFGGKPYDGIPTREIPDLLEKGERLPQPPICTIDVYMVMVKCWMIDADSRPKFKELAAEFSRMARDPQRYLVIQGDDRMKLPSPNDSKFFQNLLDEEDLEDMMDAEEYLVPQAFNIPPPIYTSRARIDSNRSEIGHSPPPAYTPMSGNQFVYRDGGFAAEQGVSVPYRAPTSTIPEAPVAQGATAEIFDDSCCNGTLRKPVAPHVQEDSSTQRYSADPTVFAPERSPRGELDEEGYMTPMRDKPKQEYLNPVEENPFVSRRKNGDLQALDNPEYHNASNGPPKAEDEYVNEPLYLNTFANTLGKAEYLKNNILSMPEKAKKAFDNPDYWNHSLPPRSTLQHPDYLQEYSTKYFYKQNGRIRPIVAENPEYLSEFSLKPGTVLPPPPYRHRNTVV

B1: MM-121 (antibody, INN chains, looked up, human IgG2, V domains shown)
VH: EVQLLESGGGLVQPGGSLRLSCAASGFTFSHYVMAWVRQAPGKGLEWVSSISSSGGWTLYADSVKGRFTISRDNSKNTLYLQMNSLRAEDTAVYYCTRGLKMATIFDYWGQGTLVTVSS
VL: QSALTQPASVSGSPGQSITISCTGTSSDVGSYNVVSWYQQHPGKAPKLIIYEVSQRPSGVSNRFSGSKSGNTASLTISGLQTEDEADYYCCSYAGSSIFVIFGGGTKVTVL
modifications: IgG2/kappa
Molecule B1 had a % Positive for HER4 of 8.73%.
